According to patent publication US12447201B2, “Immunogenic compounds for cancer therapy” (priority 2016, dated 2025):

Key:
HLA-A*0201 = target: T1, HLA-A*0201 (Homo sapiens, UniProt P04439, D140Y/D185E/D98H/E176V/E277Q/G131W/G231S/I119V/I121R/I166T/I218V/L300P/L318F/N151K/N90K/P208A/P217A/Q86G/Q94H/R138H/R169H/T345S); experiment: Affinity of the peptide to HLA-A*0201 measured on T2 cell line (FACS, anti-HLA-A2 labelling); type: binding; details: for binding to HLA-A*0201 / affinity to HLA-A*0201 compared with the peptide 1A9V: Example 3, FIG. 4, T2 cells; for peptide concentration inducing 20% of expression of the HLA-A*0201: T2 cells
T1 construct: human tumoral cell T2 which expresses the HLA-A*0201 molecule, but which is TAP1/2 negative; endogenous in cells; host or cells: T2 cells (human, TAP1/2 negative)
Source text: The experimental protocol is similar to the one that was validated for peptides presented by the HLA-A*0201 (Tourdot et al., A general strategy to enhance immunogenicity of low-affinity HLA-A2.1-associated peptides: implication in the identification of cryptic tumor epitopes. Eur J Immunol. 2000 December; 30 (12): 3411-21). Affinity measurement of the peptides is achieved with the human tumoral cell T2 which expresses the HLA-A*0201 molecule, but which is TAP1/2 negative and incapable of presenting endogenous peptides.
(§1) T2 cells (2.10^5 cells per well) are incubated with decreasing concentrations of peptides from 100 μM to 0.1 μM in a AIMV medium supplemented with 100 ng/μl of human β2m at 37° C. for 16 hours. Cells are then washed two times and marked with the anti-HLA-A2 antibody coupled to PE (clone BB7.2, BD Pharmagen).
The analysis is achieved by FACS (Guava Easy Cyte).
(§2) For each peptide concentration, the geometric mean of the labelling associated with the peptide of interest is substracted from background noise and reported as a percentage of the geometric mean of the […] labelling obtained for the reference peptide HIV pol 589-597 at a concentration of 100 μM. The relative affinity is then determined as follows: relative affinity=concentration of each peptide inducing 20% of expression of HLA-A*0201/concentration of the reference peptide inducing 20% of expression of HLA-A*0201. A2. Solubilisation of Peptides
The experimental protocol was similar to the one that was validated for peptides presented by the HLA-A*0201 (Tourdot et al., A general strategy to enhance immunogenicity of low-affinity HLA-A2.1-associated peptides: implication in the identification of cryptic tumor epitopes. Eur J Immunol. 2000 December; 30 (12): 3411-21).
as §1, with “were” for “are”
The analysis was achieved by FACS (Guava Easy Cyte).
as §2, with “was subtracted” for “is substracted”
The experimental protocol, materials and methods correspond to those outlined in Example 3, with the only difference that the above mentioned antigenic peptides were used.

β/A2/DR3 mice = experiment: ELISPOT-IFNγ assay on splenocytes of vaccinated β/A2/DR3 mice; type: in vivo, mouse; details: as compared to IL13RA2-H-vaccinated animals (group 2)

| Sequence | binding to HLA-A*0201 (HLA-A*0201) | peptide concentration inducing 20% of expression of the HLA-A*0201 (HLA-A*0201) | affinity to HLA-A*0201 compared with the peptide 1A9V (HLA-A*0201) | T cell responses in the ELISPOT-IFNγ assay after vaccination (β/A2/DR3 mice) |
| --- | --- | --- | --- | --- |
| CLYTFLIST [IL13RA2-H2, reference compound] | do not bind to or show much lower affinity | – | – | – |
| WLPFGFILI [IL13RA2-H, reference compound] | do not bind to or show much lower affinity | 100 UM | – | – |
| YLYTFLIST [IL13RA2-B2] | bind strongly | – | higher affinity | – |
| FLPFGFILV [IL13RA2-B] | bind strongly | 4.4 µM | higher affinity | improved T cell responses |
